From the DeepSol protein solubility set

experiment: soluble on expression in E. coli; label from the status in PepcDB or PDB records

Sequence | soluble on expression in E. coli
MSFRIGRRCFSKQSYDAIIIGGGHNGLTAAAYLTKAGKKVCVLERRHVVGGAAVTEEIVPGFRFSRASYLLSLLRPVVMQELNLKKFGLRYHIRNPNSFTPIRNTHESLLLGMDMAENQKEIAKFSQRDAGNYPKYEHFISEIVHSFEQLMDYEPLDLQKPIHKLLPHLYLLFKTVQPLGLRNAVDFYELMTAPISKIMNKWFESDVLKATLGTDGVIGLAASPMDPGTGYVLLHHVIGGLDEHKGAWGYVYGGMGAVSNAIAECAKSHGAEIYTEQDVQEVLLDGNVAKGVRLSNGKELHSKIVMSNATPHVTFNHLVKKESLPEEFHRNINQIDYTSPVTKINVAVKELPNFLAKPNQGSEPMPHHQTTIHMNCENMQVVHDAVMDYKNGRYSRRPVIEMTIPSSVDRTIVDSADGHVVLLFTQYTPFSPKDGEWTEEKKTEYAKHVFSEIDAYAPNFSSSVIGYDILTPPDIQNTFGITGGNIFHGSMSLDQLYVSRPISKWSNYSTPIESLYLCGSGAHPGGGVTGAPGRLSALHALKHF | not soluble
METETYTNSSHLGRKIERIRRLRGMTQTDLGELLGVTKQAISKMEQAEKIDDEKLKQVATALGVTEEGLKKFTEETVLYYTSNFYENCHVSASNIGPITHVENLNHFSMDQAVKLFEELLKIERDKYDKGKEESAK | not soluble
MGHHHHHHSHQKGRYTELVEEKYKLFGELYKTFTKGGLICCSIESPNQEEQEVETDWGLLKGHTYTMTDIRKIRLGERLVEVFSAEKVYMVRLRNPLGRQEWSGPWSEISEEWQQLTASDRKNLGLVMSDDGEFWMSLEDFCRNFHKLNVCRNVNNPIFGR | not soluble
KLSPMIDLWDTLQSLLHVQELHVVAAHGEVKELLVRMSLNEATIPPEKVPIHAINLLLEDTVIPFIFTMEEERSISIPYTDSIDKYVYEPHTALLKAGAFKTVAYRLGLRKLHPNSHLYTSEAYESAFPGRTFVLEEIIPFSTSVLKQLRKVVPQASISCRNFPLSPIELRQRSKMADGGEKTLMGTTMADGKKVLLLLRKAE | not soluble
MVLGEYYAVAGHIGFGGKADARHMGNDPRRALVHPPFLPDFGQHIFFHRALEPENRWKRMAGRPRTSAARAFCRQ | not soluble
MAAFSVHILGCGSALPTTHHHPSSQVIDLRDKLYMIDCGEGVQRQFRHEKLHFGRLIHIFISHLHGDHCFGLPGFISTLGLLGRTGTLHVHGPEGIERFLSPILEQFCHRMPYQVEIHTIDASRHALVHEDKSVKVYSIPLSHRIPAVGYLFEEKCRARHLNKAAAEFYNIPLAEYPLIIEGSDYTTPDGRIIPNRHLTTPGTPPRRYAYCSDTEFCPSIVPIIQGVDLLYHEATFMEEDRARAKETFHSTAKEAAEIARQAGAKRLLIGHYSGRYKDVQGLLEEAQSVFKPTIAANERMRIDL | not soluble
MSLLTVVQDQQSSNDDSGVGRSLLDEIVRDGARQMLAAALAAEVAAYIEQFAEHLDEHGRRLVVRNGYHHERDVLTAAGAVTVTAPRVNDRRVDAETGERQRFSSAILPAWSRKSPQMTEVLPLLYLHGLSSGDFSAALEQFLGTGAGLSASKITRLTAQWQDEAKAFADRDLSGTDFVYLWVDGIHLKVRLEQQKLCLLVMIGVRADGRKELVALTDGFRESTESWADLLRSCRRRGMTAPVLAVGDEALGFWKALREVFPDTREQRCWFHKQANVLAALPKSAHPGATAAMREIYNAEDIDKAQVAIKAFEVDYGAKYPKAVAKIVDDADVLLEFYRYPAEHWIHLRTTNPIESTFATVRLRTKVTKGPGSRAAGIAMAYKLIDAAQARWRAVNAPHLVALVRAGAVFHKGKLLEREGHHHHHH | not soluble
MGSDKIHHHHHHMKDDQWLEARAHGDPMFPCNVYRVKEVNGQVIIHCHWHHEMEWIYMEAGEAEFQIGTKMTTVRAGEGLFIPSGHLHGAYPVSDKPFSLYATVVHPDFISSFGYDLIQSRYIDPFKDSERTGPIKLCPTHYWMSDMLTMLQATISQFQQKEEGYELVIKANLLQMMAELVKHFPRTEEQKTGTPQQIRQIKKVLQFIDEHYDEKLTIKQLANLVQMSEGHFSRFFKSIVRMTAVEYIHTQRLNKAARLLRETDRTIMDISMSVGFDHPSYFIKLFKRHKRCTPSEFRRIGLPTFSENMKT | not soluble
MWLIILWNAKPDTPLFNFKDEVIKYKTYEPFESSIKRVNTTIKNGSKGKTLTEMINGYRADNDIRDEICNFNILKNKIRDMKNQQGNTMESYF | not soluble
MSKDSNKIIEQSREIGISIIMPLYNVEEVILETLESIHEQTFDSYEVLLIDDGSTDKTIEIVTEYIKDKPRFKLYTQPNGGPASARNHGLRLAIGMYICFVDSDDILPNYSLQLMYDGAISTGAKLITGATKRFNSEGEWFIPMHIQYNIAKPGMKTLLKNPELFYSIGPCAKLYHHSLIDGVFFPENIRYGEDQPFVLHALLQAKDIYTVEKVVYYYRLRDGESQSLTQSVDKDPIRILKSVFQIFDYGEEELKKNNTDYEVALKYYQRVSSVELWGALRAAIESKKSENQKIAFTMTLDWLKTKSDDFLNIIPSFRYFLLFSSIERVRYITKDNKENYRNLIGYLWSRQGEEAKIAFRKTYPIPMKAALQIIENNNWRDARKISFKFIVRRKFKAPILIRKISRGIIFRIATLMPRKKNQVILATERSTTLEGNLLAIYDYMFYNNMPQKVYVFLRKNRNWFEMFQLYYTLGRTKTIVLDDYYNKIYGLKFNKNTHVVQSWHATGAFKKFGFSALEGTDANTEEFETRAHSPYTDVLVSSEGIIPEYMEAFRKQANQIKPIGVPRTDVFFDDEYVNYTKEKYMKMYPQLRDKKILLYAPTFRGGPNERFNYSVVLDIAALKKELGDTHILILKFHPVIKNVSFNVEEDDPFILNLTLNNDINDLMLFSDALITDYSSVIFEFSLMNKPIYFFAYDIDDYLDERGFYFDYKATIPGEVFRDTPSLIEAVKSGLYNYDELEIFKKKFVGSLDGNSTKRFVETYIGKANEKVKDILEHHHHHH | soluble
MKTMRKILEIDEERCNGCGLCVLDCAEGAIAIVDGKAKIVSDSFCDGLGACIGSCPQDALHIIEREAVPFDEEAAMEHVRSQGGTPEANHGHGHGAGTPHRHGQSAEHGGHGRIPGHGGCPGAAMRRFDSAESPAFAVAEGTVKGPGHWPLKIRLVPPTAPFLKGADVLVAADCAAAASPIFHSHFAAGKVVLIGCPKFDDTEAYAERLADILRVSGIASLTVLRMEVPCCRGLSAAAEKARVLSGTSLVLKEVIMTCAGGPAAPAPLSSL | soluble
MGHHHHHHSHMMPAERRLPLSFVLDVLEGRAQHPGVLYVQKQCSNLPSELPQLLPDLESHVPWASEALGKMPDAVNFWLGEAAAVTSLHKDHYENLYCVVSGEKHFLFHPPSDRPFIPYELYTPGTYQPSDRPFIPYELYTPATYQLTEEGTFKVVDEEAMEKVPWIPLDPLAPDLARYPSYSQAQALRCMVRAGEMLYLPALWFHHVQQSQGCIAVNFWYDMEYDLKYSYFQLLDSLTKASGLD | soluble
MGSDKIHHHHHHMTTVNETTSQAGLALAQAGSNSAAQGIQDQFLTLLVTQLRNQDPLNPMENAELTSQLAQISTVEGINNLKNTMLAISGQIDVSQSMDAVSMIGKGVLMPGDKVSLGADPNDPAQRGATPFGIDLQGDATKVTVKVLDPSGAVVRTMELGDLKTGVHTLQWDGNNDGGQPLADGKYSITVSASDADANPVKTEALTYGQVKSVAYSTNGLRLDLGLAGQISMLDVRKVIGASGSA | not soluble
MAKLRPYYEESQSAYDISDDFFALFLDPTWVYTCAYFERDDMTLEEAQLAKVDLALDKLNLEPGMTLLDVGCGWGGALVRAVEKYDVNVIGLTLSRNHYERSKDRLAAIGTQRRAEARLQGWEEFEENVDRIVSFEAFDAFKKERYLTFFERSYDILPDDGRMLLHSLFTYDRRWLHEQGIALTMSDLRFLKFLRESIFPGGELPSEPDIVDNAQAAGFTIEHVQLLQQHYARTLDAWAANLQAARERAIAVQSEEVYNNFMHYLTGCAERFRRGLINVAQFTMTK | soluble
MTKNKMEAKIDELINNDPVWSSQNESLISKPYNHILLKPGKNFRLNLIVQINRVMNLPKDQLAIVSQIVELLHNSSLLIDDIEDNAPLRRGQTTSHLIFGVPSTINTANYMYFRAMQLVSQLTTKEPLYHNLITIFNEELINLHRGQGLDIYWRDFLPEIIPTQEMYLNMVMNKTGGLFRLTLRLMEALSPSSHHGHSLVPFINLLGIIYQIRDDYLNLKDFQMSSEKGFAEDITEGKLSFPIVHALNFTKTKGQTEQHNEILRILLLRTSDKDIKLKLIQILEFDTNSLAYTKNFINQLVNMIKNDNENKYLPDLASHSDTATNLHDELLYIIDHLSEL | soluble
